Assay results from patent publication US9309315B2, “Therapy with CD4 binding peptides and radiation” (GENMAB A/S, priority 2005, dated 2016).

Assays:
Type in all cases: cell-based, human
Dok-1 = assay: SH2-precipitation (SH2C-RasGAP-GST) and Dok-1 blot of lysates from CD4+ T cells incubated with zanolimumab; conditions: SH2-precipitate; for amount of precipitated Dok-1 after inhibitor pre-treatment: cells pre-incubated with inhibitor before zanolimumab exposure, FIG. 3D
Protocol: (§1) FIG. 3 illustrates results from CD4^+ T cells incubated with zanolimumab or a human immunoglobulin negative control. Cell lysates were CD4-precipitated (A), SH2-precipitated (B, D) or used as whole lysate (C). FIG. 3A: Two CD4-precipitates were submitted to a kinase assay (upper two panels). Blots were probed with antibodies to p56^Ick (top panel), the p56^Ick substrate α-casein (second panel), Y-394 phosphorylated p56^Ick (third panel), p56^Ick (fourth panel) or CD4 (bottom panel). The numbers below the blots represent densitometric values normalized for p56^Ick loading. FIG. 3B: Blots with SH2-precipitate were incubated with antibodies to Dok-1 (top panel) or GST (bottom panel). The numbers below the blots represent densitometric values normalized for GST loading. FIG. 3C: Proteins in whole cell lysate were separated by SDS-PAGE and blotted. Membranes were incubated with antibodies to phosphorylated SHIP-1 (top panel) or SHIP-1 regardless of phosphorylation status (bottom panel). The numbers below the blots represent densitometric values normalized for SHIP-1 loading. FIG. 3D: Before zanolimumab exposure, cells were pre-incubated with Src kinase inhibitors PP2 or damnacanthal (DAM). Blots were incubated with antibodies for Dok-1 (top panel) or GST (bottom panel). The numbers below the blots represent densitometric values normalized for GST loading. Results for the experiments shown here are representative of 4 independent experiments.
The activation of inhibitory adaptor molecules in T cells presented in FIG. 3 were obtained with CD4^+ T cells isolated as described in example 1. CD4^+ T cells (3×10E7 cells) were incubated with zanolimumab and, when appropriate, pre-incubated with Src kinase inhibitors PP2 or damnacanthal (Merck Biosciences, Nottingham, UK) before exposure to zanolimumab. Cell lysates were incubated with CD4-precipitating antibody and antibody-bound proteins were precipitated with protein-G sepharose. […] Proteins were detected with an HRP-conjugated secondary antibody, visualized by ECL and quantified using a phosphor-imager.

SHIP-1 = assay: Whole cell lysate blot for phosphorylated SHIP-1 in CD4+ T cells incubated with zanolimumab; conditions: FIG. 3C
Protocol: as §1, with “FIG. 3D: Before zanolimumab exposure, cells were pre-incubated with Src kinase inhibitors PP2 or damnacanthal (DAM). Blots were incubated with antibodies for Dok-1 (top panel) or GST (bottom panel). The numbers below the blots represent densitometric values normalized for GST loading. Results for the experiments shown here are representative of 4 independent experiments.” left out
The activation of inhibitory adaptor molecules in T cells presented in FIG. 3 were obtained with CD4^+ T cells isolated as described in example 1. […] Proteins were detected with an HRP-conjugated secondary antibody, visualized by ECL and quantified using a phosphor-imager.

CD4^+ T cells = assay: Western blotting of T-cell signaling molecules in CD4+ T cells incubated with zanolimumab and stimulated with immobilized CD3 monoclonal antibody (OKT3)
Protocol: FIG. 2 illustrates results of Western blotting of cell lysates prepared from CD4^+ T cells stimulated with CD3 monoclonal antibody and zanolimumab. CD4^+ T cells were incubated with HuMax-CD4 and then stimulated with CD3 monoclonal antibody (OKT3) immobilized onto latex beads. Proteins in duplicate cell lysate samples were separated by 7-15% gradient gel SDS-PAGE and were transferred onto blotting membranes by electrophoresis. One membrane was incubated with a phosphotyrosine specific antibody, stripped and then re-probed with TCRζ and LAT specific antibodies (FIG. 2A). The other was incubated with antibodies to the phosphorylated form of specific proteins, stripped and then re-probed with ZAP-70 (2B), Erk1/2, p38 and AKT antibodies (2C). The numbers below the blots represent densitometric values normalized for loading relative to values observed after 2 min of CD3-stimulation in the absence of HuMax-CD4. Results for the experiments shown here are representative of 4 independent experiments.
The effect on T-cell signaling molecules upon T-cell activation presented in FIG. 2 were obtained with CD4^+ T cells isolated from peripheral blood from healthy donors. CD4^+ T cells were isolated using enrichment RosetteSep cocktail (Stemcell Technologies Inc, Canada) and separated by lymphoprep (Axis Shield, Poc AS, Norway) density centrifugation. CD4^+ T cells (10^7 cells) were incubated with zanolimumab and then stimulated with CD3 monoclonal antibody (OKT3, available from Orthoclone, Pharmacy, UMC, Utrecht) immobilized onto latex beads. Cell were lysed using lysis buffer (1% Nonidet P-40, 20 mM Tris-HCl, pH 7.4, 150 mM NaCl, 2 mM EGTA, 1 mM Na3VO4, 10 mM NaF, 10 mM sodium pyrophosphate and protease inhibitors (Roche Molecular Biochemicals, Sussex, UK)). Proteins in duplicate cell lysate samples were separated by 7-15% gradient gel SDS-PAGE and transferred onto blotting membranes by electrophoresis. Membranes were incubated with antibodies for specific tyrosine-phosphorylated proteins, stripped and then re-probed with antibodies recognizing the specific proteins regardless of their phosphorylation status. Proteins were detected with an HRP-conjugated secondary antibody, visualized by ECL and quantified using a phosphor-imager.

Molecule	amount of precipitated Dok-1 after inhibitor pre-treatment (Dok-1)	phosphorylation of SHIP-1 (SHIP-1)	phosphorylation of Dok-1 (Dok-1; FIG. 3B)	tyrosine-phosphorylation of intracellular proteins following TCR stimulation (CD4^+ T cells; TCR stimulation via immobilized CD3 monoclonal antibody, FIG. 2A)	phosphorylation of LAT (36-38 kDa) (CD4^+ T cells; after CD3 stimulation, FIG. 2A)	phosphorylation of p21 and p23 phosphorylated isomers of the TCR-ζ chain (CD4^+ T cells; after CD3 stimulation, FIG. 2A)	phosphorylation of ZAP-70 (CD4^+ T cells; after CD3 stimulation, FIG. 2B)	AKT/PKB downstream signaling pathway (CD4^+ T cells; after CD3 stimulation, FIG. 2C)	Erk1/2 downstream signaling pathway (CD4^+ T cells; after CD3 stimulation, FIG. 2C)	p38 serine/threonine downstream signaling pathway (CD4^+ T cells; after CD3 stimulation, FIG. 2C)	inhibition of the very earliest T-cell activation events (CD4^+ T cells; summary of Example 1, densitometry relative to CD3 stimulation without antibody)
COc1c(C=O)c(O)cc2c1C(=O)c1ccccc1C2=O [damnacanthal]	reduced amount of precipitated Dok-1										
CC(C)(C)n1nc(-c2ccc(Cl)cc2)c2c(N)ncnc21 [PP2]	reduced amount of precipitated Dok-1										
zanolimumab (antibody, listed as Homo sapiens, V domains shown, anti CD4 Vh; anti CD4 VL, anti-CD4 monoclonal human antibody (GenMab, Denmark), same as 6G5 of WO97/13852) VH: QVQLQQWGAGLLKPSETLSLTCAVYGGSFSGYYWSWIRQPPGKGLEWIGEINHSGSTNYNPSLKSRVTISVDTSKNQFSLKLSSVTAADTAVYYCARVINWFDPWGQGTLVT VL: DIQMTQSPSSVSASVGDRVTITCRASQDISSWLAWYQHKPGKAPKLLIYAASSLQSGVPSRFSGSGSGTDFTLTISSLQPEDFATYYCQQANSFPYTFGQGTKLEIK		induces phosphorylation	induces phosphorylation	generalized inhibition	inhibited	markedly inhibited	inhibition	inhibits	inhibits	inhibits	about 50%
